In patent US5574007A, “Polypeptide capable of interacting with thrombin” (Asahi Kasei Kogyo Kabushiki Kaisha, priority 1990, dated 1996):

Experiments:
[1] = molecular target: T1, thrombin-catalyzed activation of protein C (Homo sapiens, UniProt P00734); assay: Assay of the activity to promote the thrombin-catalyzed activation of protein C (Example 1-(3), fluorogenic substrate Boc-Leu-Ser-Thr-Arg-MCA); type: biochemical, bovine; set-up: 3 μl of thrombin (manufactured and sold by Sigma Chemical Company, catalog No. T-6759, 20 ng/μl); purchased Sigma Chemical Company T-6759; settings: for calcium ion concentration at which the activity is highest: calcium ion 0 to 5 mM; for activity to promote the thrombin-catalyzed activation of protein C (in words): purified polypeptide from COS-1, calcium ion concentrations of 0 to 5 mM; for amount of activated protein C with reaction time (in words): from D71 strain
Description: 5 μl of the supernatant of the culture of COS-1 cells is transformed by each of plasmids pSV2TMD7 and pSV2TMD8, 3 μl of thrombin (manufactured and sold by Sigma Chemical Company, catalog No. T-6759, 20 ng/μl), 5 μl of 10×Assay Buffer containing 1M NaCl, 30 mM CaCl2, 1% calf serum albumin and 0.5M tris-HCl buffer (pH 8.5) and 29.5 μl of distilled water are mixed together and allowed to stand at 37° C. for 5 minutes, followed by the addition of 7.5 μl protein C (derived from bovine, 0.2 μg/μl) to the mixture. The reaction is conducted at 37° C. for 30 minutes, and terminated by adding 6.25 μl of a stop solution (20 mM tris-HCl buffer, pH7.5, containing 100 mM NaCl, 0.3A280 anti-thrombin III and 100 μg/ml heparin).
The activity of activated protein C is measured by first adding 10 μl of Boc-Leu-Ser-Thr-Arg-MCA (manufactured and sold by Peptide Institute, The Foundation (Japan), 5 mg/ml), 5 μl of 5M CsCl and 495 μl of a substrate reaction buffer (50 mM tris-HCl buffer containing 100 mM NaCl (pH 8.5)), next allowing the reaction to proceed at 37° C. for 20 minutes, then terminating the reaction by adding 55 μl of acetic acid, and finally measuring the concentration of liberated AMC ([…]) by means of a spectrofluorometer (model RF-540, manufactured and sold by Shimadzu Corporation, Japan) at an excitation wavelength of 380 nm and an emission wavelength of 440 nm. The obtained fluorescence intensity is compared with the fluorescence intensity of a solution having a known AMC concentration to determine the amount of the liberated AMC. The value obtained by deducting from this amount the amount of AMC in the case where an aqueous solution containing no polypeptide of the present invention is added, represents the activity of the polypeptide to promote the thrombin-catalyzed activation of protein C. The activity to produce 1 nM of activated protein C per ml of reaction mixture and per minute is defined as 1 u (unit).
(§1) With respect to the polypeptide solutions (0.4 μg/ml) purified and quantitated in Example 1-(5)-(d), the activity of polypeptides to promote the thrombin-catalyzed activation of protein C is measured according to the method described in Example 1-(3). The CaCl2 concentration of 10×Assay buffer is adjusted so that the activities at calcium ion concentrations of 0 to 5 mM are determined. Also, with respect to protein C having no Gla domain (hereinafter referred to as "GDPC") which is prepared by chymotrypsin treatment according to the method of N. L. Esmon [J. Biol. Chem. Vol. 258, pp. 5548-5553 (1983)]and which is used instead of protein C, the activity measurement is carried out within the same range of calcium concentration.

[2] = molecular target: T1, thrombin-catalyzed activation of protein C; assay: Activity to promote the activation of protein C (Example 9-(4)); type: biochemical; settings: peptide solution 10 nM, thrombin 15 nM, protein C 3.2 μM, 37° C., one hour
Description: With respect to the polypeptide purified in Example 9-(3), the activity to promote the activation of protein C is measured according to the following method. That is, 10 μl of a peptide solution (10 nM), 10 μl of thrombin (15 nM), 10 μl of protein C (3.2 μM), 10 μl of 10×Assay buffer [0.5M Tris HCl (pH 7.5) containing 1% BSA, 1M NaCl and 20 mM CaCl2 ] and 60 μl of distilled water are mixed together. The mixture is reacted at 37° C. for one hour, and antithrombin III and hepalin are added at final concentrations of 100 nM and lu/ml, respectively, thereby stopping the reaction. To measure the concentration of activated protein C, the concentration of AMC ([…]) liberated from a 200 μM substrate of Boc-Leu-Ser-Thr-Arg-MCA in a buffer containing 0.05M Tris HCl (pH 8.0) and 0.1M CsCl is measured at an excitation wavelength of 380 nm and a measuring wavelength of 440 nm.

[3] = molecular target: T2, thrombin-catalyzed activation of GDPC (protein C having no Gla domain) (Homo sapiens, UniProt P00734); assay: Same assay with protein C having no Gla domain (GDPC) instead of protein C; type: biochemical; settings: calcium ion concentrations of 0 to 5 mM
T2 construct: 3 μl of thrombin (manufactured and sold by Sigma Chemical Company, catalog No. T-6759, 20 ng/μl); purchased Sigma Chemical Company T-6759
Description: as §1

[4] = molecular target: T1, thrombin-catalyzed activation of protein C; assay: Activated protein C formation against reaction time with purified polypeptide (Example 4-(6)); type: biochemical
Description: To 0.02M Tris-HCl buffer (pH 8.5) containing 0.1M NaCl, 0.5 mM CaCl2 and 10 mg/ml BSA are added 50 μg/ml protein C, 5 nM thrombin and 5 nM of each of the purified polypeptides of the present invention, and reacted at 37° C. To each of the reaction mixtures are added 300 μg/ml antithrombin III (manufactured and sold by Sigma Chemical Company, U.S.A.) and 5 mM EDTA to terminate the reaction. Then, the amount of the activated protein C produced by the reaction is determined by the method described in Example 1-(3) in which a synthetic substrate is used.

[5] = system: thrombin-catalyzed platelet aggregation; assay: Platelet aggregation-inhibiting activity (Platelet Rich Plasma, HEMA TRACER IV); type: cell-based; settings: polypeptide purified from Acremonium chrysogenum (Example 6(4))
Description: The activity of each of the polypeptides of the present invention to inhibit the thrombin-catalyzed platelet aggregation is evaluated using platelet aggregation measuring apparatus HEMA TRACER IV (manufactured and sold by NIKO Bioscience, Inc., Japan). Measurement is carried out according to the manual attached thereto. When 40 μl of a 20 NIH unit/ml thrombin solution (manufactured and sold by SIGMA Chemical Co., U.S.A., T 6759) is added to 180 μl of a Platelet Rich Plasma (PRP) platelet solution (3×10^5 cells/μl) and incubated, the aggregation of platelets occurs. […] The aggregation of platelets is determined on the basis of the transparency, assuming the transparency of Platelet Poor Plasma (PPP) solution as 100%. The ratio of platelet aggregation is plotted against the incubation time (0 min: the time when thrombin or a mixture of thrombin and one of the polypeptides is added to the PRP solution). It is confirmed that the platelet aggregation is inhibited when one of the polypeptides of the present invention is added.

[6] = molecular target: thrombin-catalyzed conversion of fibrinogen to fibrin (Homo sapiens, UniProt P00734); assay: Anticoagulating activity: clotting time of a fibrinogen solution; type: biochemical; settings: polypeptide purified from Acremonium chrysogenum (Example 6(4))
Description: The activity of each of the polypeptides of the present invention to inhibit the thrombin-catalyzed conversion of fibrinogen to fibrin so as to inhibit blood coagulation, is determined by measuring clotting time using Coagulometer KC-10A (manufactured and sold by Heinrich Amelung A.G., Germany). Illustratively stated, to 0.05M Tris-HCl buffer (pH 7.5) containing 5 mM CaCl2 and 0.1M NaCl is added 3.0 μg of fibrinogen (Fraction I, manufactured and sold by Sigma Chemical Company, U.S.A.). To the resultant mixture is added 0 to 50 nM of each of the purified polypeptides of the present invention. Then, 10 nM thrombin is added to the mixture in such an amount that the total amount of the mixture becomes 0.4 ml, and then the coagulation time of the mixture is measured.

[7] = polypeptide purified from Acremonium chrysogenum strains D71 and M31 (Example 6(4))

| Substance | calcium ion concentration at which the activity is highest ([1]; activation of protein C) [mM] | activity to promote the thrombin-catalyzed activation of protein C (in words) [1] | production of activated protein C [2] [pmol] | activity in the activation of GDPC (in words) [3] | Specific activity ([1]; COS-1 culture supernatant, activity per amount of polypeptide by ELISA) [u/mg] | specific activity (in words) ([1]; deletion mutants expressed in COS-1 cells) | amount of activated protein C with reaction time (in words) ([1]; purified by DIP-thrombin column (Example 8(2))) | amount of activated protein C with reaction time (in words) ([1]; purified by anti-TM monoclonal antibody column 1 (Example 8(4))) | amount of activated protein C with reaction time (in words) ([1]; purified by anti-TM monoclonal antibody column 2 (Example 8(5))) | Activity ([1]; supernatant of culture of COS-1 cells transformed with the plasmid, 1 u = 1 nM activated protein C per ml per minute) [u/ml] | amount of activated protein C with reaction time (in words) [4, 7] | thrombin-catalyzed platelet aggregation (in words) [5] | clotting time of fibrinogen solution against amount of polypeptide (in words) [6] | activity relative to that of E456Asp ([1]; activation of protein C) [times] | amount of activated protein C with reaction time (in words) ([4]; 5 nM polypeptide, 5 nM thrombin, 50 μg/ml protein C, 37° C., polypeptide from COS-1 or CHO cells) |
| --- | --- | --- | --- | --- | --- | --- | --- | --- | --- | --- | --- | --- | --- | --- | --- |
| D123Asp: polypeptide of amino acid residues up to the 516th position of human thrombomodulin (FIG. 55), expressed from pSV2TMD1 | 0.4 to 0.5 | high activity | 18.6 | low activity |  |  |  |  |  |  |  |  |  |  |  |
| E456Asp: polypeptide of the 367th to 480th amino acid residues of human thrombomodulin, from cells transfected with pSV2TMD7 or Acremonium strain D71 | 0.4 to 0.5 | high activity | 18.3 | low activity | 5809 | same level of specific activity as that of the 115-amino acid polypeptide | increased with the lapse of the reaction time | increased with the lapse of reaction time | increased with lapse of reaction time | 1210 | increased with the lapse of reaction time | inhibited | the longer the clotting time |  |  |
| E456Glu: 367th to 480th amino acid residues of human thrombomodulin in which the 367th Asp is replaced by Glu (pSV2TMM3) |  |  |  |  |  |  |  |  |  |  | increased with the lapse of reaction time | inhibited | the longer the clotting time | 1.3 | increased with the lapse of reaction time |
